Measured values from publication PMC8748714 (2022).
No end group written: not given here.

T1: GLP-1R M204A (Homo sapiens)
T1 chain: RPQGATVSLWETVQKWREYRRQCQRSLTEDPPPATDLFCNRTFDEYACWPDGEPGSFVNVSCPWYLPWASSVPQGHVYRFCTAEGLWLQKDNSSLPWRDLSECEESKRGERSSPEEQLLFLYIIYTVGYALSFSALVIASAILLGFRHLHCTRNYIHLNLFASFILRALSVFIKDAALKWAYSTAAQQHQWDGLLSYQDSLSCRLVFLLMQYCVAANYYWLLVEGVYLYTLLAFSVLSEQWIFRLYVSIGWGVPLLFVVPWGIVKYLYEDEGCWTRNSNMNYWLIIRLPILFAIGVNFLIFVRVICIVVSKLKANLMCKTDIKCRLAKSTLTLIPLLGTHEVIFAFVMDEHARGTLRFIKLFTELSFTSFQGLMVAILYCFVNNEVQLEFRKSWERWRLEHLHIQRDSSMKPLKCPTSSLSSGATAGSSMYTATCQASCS

T2: GLP-1R D198A (Homo sapiens)
T2 chain: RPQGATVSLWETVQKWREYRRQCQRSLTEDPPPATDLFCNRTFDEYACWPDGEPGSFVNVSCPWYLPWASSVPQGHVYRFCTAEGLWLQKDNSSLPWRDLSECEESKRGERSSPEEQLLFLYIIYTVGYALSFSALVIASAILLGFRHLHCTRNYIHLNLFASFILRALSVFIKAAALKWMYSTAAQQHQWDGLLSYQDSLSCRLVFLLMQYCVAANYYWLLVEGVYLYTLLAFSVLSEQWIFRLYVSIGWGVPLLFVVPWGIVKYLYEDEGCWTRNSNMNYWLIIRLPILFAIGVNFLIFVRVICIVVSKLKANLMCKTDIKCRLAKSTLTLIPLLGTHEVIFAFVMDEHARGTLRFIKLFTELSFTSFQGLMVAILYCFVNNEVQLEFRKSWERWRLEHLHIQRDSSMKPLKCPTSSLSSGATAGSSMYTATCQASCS

T3: GLP-1R L144A (Homo sapiens)
T3 chain: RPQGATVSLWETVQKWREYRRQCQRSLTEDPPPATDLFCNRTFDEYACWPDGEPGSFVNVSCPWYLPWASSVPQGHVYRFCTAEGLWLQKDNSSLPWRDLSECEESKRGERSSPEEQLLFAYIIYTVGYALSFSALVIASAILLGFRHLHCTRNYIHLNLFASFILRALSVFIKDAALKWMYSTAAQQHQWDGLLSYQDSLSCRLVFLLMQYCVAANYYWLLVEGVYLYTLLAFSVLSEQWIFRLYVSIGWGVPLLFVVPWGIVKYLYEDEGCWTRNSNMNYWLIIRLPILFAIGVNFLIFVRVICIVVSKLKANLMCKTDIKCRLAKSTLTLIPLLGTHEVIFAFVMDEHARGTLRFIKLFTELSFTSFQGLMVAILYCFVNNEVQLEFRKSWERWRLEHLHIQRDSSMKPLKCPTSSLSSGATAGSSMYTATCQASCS

T4: GLP-1R Q210A (Homo sapiens)
T4 chain: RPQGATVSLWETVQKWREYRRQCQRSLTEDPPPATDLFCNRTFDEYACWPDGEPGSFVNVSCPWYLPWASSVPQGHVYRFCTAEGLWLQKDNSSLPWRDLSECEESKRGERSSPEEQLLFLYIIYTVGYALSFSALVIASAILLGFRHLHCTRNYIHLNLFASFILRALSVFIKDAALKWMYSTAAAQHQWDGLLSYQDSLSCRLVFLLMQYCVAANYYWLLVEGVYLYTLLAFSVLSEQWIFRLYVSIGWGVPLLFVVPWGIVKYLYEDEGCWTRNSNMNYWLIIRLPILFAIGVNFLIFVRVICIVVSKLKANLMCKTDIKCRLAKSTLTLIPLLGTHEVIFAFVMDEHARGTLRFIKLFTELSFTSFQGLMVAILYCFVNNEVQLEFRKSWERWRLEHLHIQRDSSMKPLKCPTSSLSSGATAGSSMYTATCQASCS

T5: GLP-1R L142A (Homo sapiens)
T5 chain: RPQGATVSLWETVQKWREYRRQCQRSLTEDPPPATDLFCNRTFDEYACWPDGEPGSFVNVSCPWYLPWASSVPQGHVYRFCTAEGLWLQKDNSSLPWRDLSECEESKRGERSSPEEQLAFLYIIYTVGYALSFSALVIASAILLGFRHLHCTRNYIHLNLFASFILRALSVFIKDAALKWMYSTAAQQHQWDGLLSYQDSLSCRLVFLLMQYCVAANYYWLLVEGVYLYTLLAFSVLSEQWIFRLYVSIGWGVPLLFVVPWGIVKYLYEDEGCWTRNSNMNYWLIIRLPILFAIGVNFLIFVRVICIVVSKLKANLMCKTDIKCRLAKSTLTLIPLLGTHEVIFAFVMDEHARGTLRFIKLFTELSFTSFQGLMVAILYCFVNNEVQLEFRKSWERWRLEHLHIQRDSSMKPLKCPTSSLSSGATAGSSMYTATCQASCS


Assays:
GLP-1R M204A = molecular target: T1, GLP-1R M204A
GLP-1R D198A = molecular target: T2, GLP-1R D198A
GLP-1R L144A = molecular target: T3, GLP-1R L144A
GLP-1R Q210A = molecular target: T4, GLP-1R Q210A
GLP-1R L142A = molecular target: T5, GLP-1R L142A

Row | IC50 (GLP-1R M204A) | IC50 (GLP-1R D198A) | IC50 (GLP-1R L144A) | IC50 (GLP-1R Q210A) | IC50 (GLP-1R L142A) | Binder
1 | 79.4 nM | 155 nM | 11 nM |  |  | HAEGTFTSDVSSYLEGQAAKEFIAWLVKGR (not fully specified (C-terminus)) [glucagon-like peptide-1]
2 | 741 nM | 708 nM | 51.3 nM | 66.1 nM | 81.3 nM | HSQGTFTSDYSKYLDSRRAQDFVQWLMNTKRNRNNIA [oxyntomodulin]
